In publication doi:10.1101/736868 (bioRxiv, 2019):

Molecular target: the molecule itself
Assay: SEC-MALS; SEC-MALLS, S-200 Superdex 10/300, 0.5 ml/min, 1x PBS (legend: TBS), protein at 33 µM; monomer and dimer

B1: purified recombinant mouse CAVII protein (mCAVII) (enzyme, UniProt Q9ERQ8 1-264, looked up)
chain: MTGHHCWGYGQDDGPSNWHKLYPIAQGDRQSPINIISSQAVYSPSLQPLELFYEACMSLSITNNGHSVQVDFNDSDDRTVVSGGPLEGPYRLKQLHFHWGKKRDMGSEHTVDGKSFPSELHLVHWNAKKYSTFGEAAAAPDGLAVVGVFLETGDEHPSMNRLTDALYMVRFKDTKAQFSCFNPKCLLPTSRHYWTYPGSLTTPPLSESVTWIVLREPIRISERQMEKFRSLLFTSEDDERIHMVDNFRPPQPLKGRVVKASFQA
notes: carbonic anhydrase VII, mouse; theoretical size of the monomer printed as 30.5 kDa; also called carbonic anhydrase VII; source: CHOEBNALT85 cell line, produced as a secreted protein, purified
  stoichiometry N: 2
